Assay [1] deals with T1, human RANK-L (human, UniProt O14788 140-317, limits assumed).
T1 construct: Soluble protein, used coated, biotinylated or labelled in ELISA, AlphaScreen, FMAT and Biacore; also called hRANK-L; soluble human RANK-L
T1 sequence (looked up): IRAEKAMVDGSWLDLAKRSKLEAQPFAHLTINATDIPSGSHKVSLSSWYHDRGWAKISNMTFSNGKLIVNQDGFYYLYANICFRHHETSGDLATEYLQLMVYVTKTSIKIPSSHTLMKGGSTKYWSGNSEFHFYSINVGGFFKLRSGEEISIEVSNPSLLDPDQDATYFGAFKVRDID
In words: FMAT, ALEXA647-hRANK-L / RANK on HEK293T cells.

The target in assay [2] is T1, human RANK-L. In words: AlphaScreen, biotin-hRANK-L / RANK-huFc beads. (In Alpha technology, singlet oxygen from a donor bead excites a nearby acceptor bead.)
A further assay concerns the target T2, mouse RANK-L (mouse, UniProt O35235 158-316, limits assumed).
T2 construct: also called murine RANK-L
T2 sequence (looked up): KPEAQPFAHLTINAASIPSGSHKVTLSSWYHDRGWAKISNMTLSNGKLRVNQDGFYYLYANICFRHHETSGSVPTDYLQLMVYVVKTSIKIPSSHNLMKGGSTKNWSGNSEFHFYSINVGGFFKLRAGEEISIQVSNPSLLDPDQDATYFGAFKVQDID
As to the kind of experiment: ELISA, set-up as for human RANK-L. As for the experimental part: (§1) Therefore 2 μg/ml neutravidin was coated overnight at 4° C. The plates were washed 5 times with 300 μl PBS and then blocked with […] 1% casein/PBS for 2 hours at room temperature. […] After extensive washing with PBS, varying concentrations of Nanobodies starting from 500 nM to 160 pM diluted in 1% casein/PBS were added to the wells and the plates were incubated for 1 hour at room temperature. Bound Nanobodies were detected by subsequent incubations of a primary mouse anti-myc antibody and a secondary anti mouse-HRP conjugate (DAKO, Glostrup, Denmark) and using TMB-H2O2 (Pierce, Rockford, Ill., USA) substrate cocktail. The reaction was stopped with H₂SO₄ and the OD was read at 450 nm.
In general terms: ELISA stands for enzyme-linked immunosorbent assay.

The target in another assay is T3, TNFα (UniProt P01375 77-233).
T3 construct: also called TNF-alpha
As to the kind of experiment: competition ELISA on RANK-L-coated plates, 1 nM Nanobody preincubated with the ligand.

Another assay addresses T4, CD40 ligand (UniProt P29965 113-261, limits assumed).
T4 sequence (looked up): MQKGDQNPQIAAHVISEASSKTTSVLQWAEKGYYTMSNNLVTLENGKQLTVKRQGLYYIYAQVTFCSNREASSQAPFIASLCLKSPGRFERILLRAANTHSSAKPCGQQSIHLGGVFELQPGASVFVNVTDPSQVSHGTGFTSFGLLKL
The assay is described as above.

The next assay addresses T5, TRAIL (UniProt P50591 114-281, limits assumed).
T5 construct: also called tumor necrosis factor-related apoptosis inducing ligand
The description is as above.

Assay [3] deals with T6, human RANK-L, full length, membrane-bound, expressed on HEK293T cells (human, UniProt O14788 1-317).
T6 construct: whole, on cells; also called hRANK-L
T6 sequence (looked up): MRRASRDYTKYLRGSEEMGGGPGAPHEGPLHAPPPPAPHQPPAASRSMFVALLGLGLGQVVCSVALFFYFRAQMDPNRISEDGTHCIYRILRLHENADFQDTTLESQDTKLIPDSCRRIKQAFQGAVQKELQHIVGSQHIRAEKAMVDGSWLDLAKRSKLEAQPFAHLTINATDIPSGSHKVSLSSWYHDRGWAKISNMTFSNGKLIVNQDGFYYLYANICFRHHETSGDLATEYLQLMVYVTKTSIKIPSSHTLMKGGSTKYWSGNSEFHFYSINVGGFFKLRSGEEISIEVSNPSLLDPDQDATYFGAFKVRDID
In words: FACS, HEK293T with human RANK-L, 80 pM Nanobody. The procedure:
(§2) Human embryonic kidney cells (HEK293T) were grown in Dulbecco's modified Eagles's medium supplemented with 10% fetal bovine serum (FBS), […] L-glutamine, 0.4 mM sodium pyruvate. […] After 48 hours, transfected cells were subjected to FACS analysis. […] Then cells were washed three times with FACS buffer. Bound Nanobodies were detected by subsequent incubations of a primary mouse anti Myc antibody (30 min at 4° C. (2 μg/ml)) and a second incubation with goat anti mouse-Phycoerythrin (PE) (Jackson Laboratories) for another 30 min at 4° C. Finally, after washing, the cells were resuspended in PBS+10% FBS+TO-PRO®-3 (5 nM) (Molecular Probes®, Invitrogen, Merelbeke, Belgium) and cell surface fluorescence expressed as mean PE fluorescence, was measured using flow cytometry.

The target in assay [4] is T6, human RANK-L, full length, …. In words: FACS, HEK293T with human RANK-L, 400 pM Nanobody. The procedure:
as §2
(A flow cytometer gives signals particle by particle.)

For assay [5] the target is unchanged. In words: FACS, HEK293T with human RANK-L, 3.2 pM Nanobody. The procedure: as §2
Assay [6] has the same target. In words: FACS, HEK293T with human RANK-L, 2000 pM Nanobody. As for the experimental part:
as §2

Assay [7] addresses T1, human RANK-L. In words: AlphaScreen, biotin-hRANK-L / RANK-huFc beads. This is another data set of the same source.
Assay [8] addresses T6, human RANK-L, full length, …. In words: FACS, HEK293T with human RANK-L, 16 pM Nanobody. The procedure: as §2
Assay [9] deals with T1, human RANK-L. In words: ELISA (ED50), biotin-hRANK-L on neutravidin. As for the experimental part: as §1
For assay [10], the target named is T1, human RANK-L. As to the kind of experiment: AlphaScreen, biotin-hRANK-L / RANK-huFc beads. As for the experimental part:
To this mixture, the RANK acceptor beads and the streptavidin donor beads were added and further incubated for 1 hour at room temperature. Fluorescence was measured by reading plates on the EnVision Multilabel Plate Reader (Perkin Elmer) using an excitation wavelength of 680 nm and an emission wavelength of 520 nm.
This is another data set of the same source.

T5 sequence (P50591 114-281 limits assumed): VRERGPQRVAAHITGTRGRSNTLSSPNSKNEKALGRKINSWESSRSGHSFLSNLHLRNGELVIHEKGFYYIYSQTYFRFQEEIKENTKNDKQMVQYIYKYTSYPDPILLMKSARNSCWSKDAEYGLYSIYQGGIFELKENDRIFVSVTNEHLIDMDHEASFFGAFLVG
T3 sequence (P01375 77-233 limits assumed): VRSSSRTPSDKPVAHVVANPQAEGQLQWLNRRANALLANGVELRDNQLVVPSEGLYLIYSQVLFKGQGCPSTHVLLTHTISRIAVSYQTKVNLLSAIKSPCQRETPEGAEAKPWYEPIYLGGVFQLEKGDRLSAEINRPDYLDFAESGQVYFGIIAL

B1: RANKL92biv (VHH)
chain: EVQLVESGGGLVQAGGSLRLTCAASGRTFRSYAMGWFRQAPGKEREFVAAINYSGGSTNYADSVKGRFTISRDNAKNTLYLQMNSLEPEDTAVYYCAAGSGYASLSYYSTERAYTYWGQGTQVTVSSGGGGSGGGGSGGGGSGGGGSEVQLVESGGGLVQAGGSLRLTCAASGRTFRSYAMGWFRQAPGKEREFVAAINYSGGSTNYADSVKGRFTISRDNAKNTLYLQMNSLEPEDTAVYYCAAGSGYASLSYYSTERAYTYWGQGTQVTVSS
notes: Bivalent Nanobody; also called RANKL9-20GS-RANKL9
Usually IC50 stands for the concentration that inhibits the measured activity by half. Low readings indicate higher potency, high ones lower potency. On to B1, for which the results for the IC50 with human RANK-L [1] and in the assay with human RANK-L [2] were 0.032 nM and 0.07 nM, respectively.

B2: RANKL91biv (VHH)
chain: EVQLVESGGGLVQAGGSLRLTCAASGRTFRSYAMGWFRQAPGKEREFVAAINYSGGSTNYADSVKGRFTISRDNAKNTLYLQMNSLEPEDTAVYYCAAGSGYASLSYYSTERAYTYWGQGTQVTVSSGGGGSGGGSEVQLVESGGGLVQAGGSLRLTCAASGRTFRSYAMGWFRQAPGKEREFVAAINYSGGSTNYADSVKGRFTISRDNAKNTLYLQMNSLEPEDTAVYYCAAGSGYASLSYYSTERAYTYWGQGTQVTVSS
notes: Bivalent Nanobody; also called RANKL9-9GS-RANKL9
Consider B2, for which the IC50 with human RANK-L [1] stood at 0.09 nM; with human RANK-L [2] it was 0.153 nM.

B3: RANKL94biv (VHH)
chain: EVQLVESGGGLVQAGGSLRLTCAASGRTFRSYAMGWFRQAPGKEREFVAAINYSGGSTNYADSVKGRFTISRDNAKNTLYLQMNSLEPEDTAVYYCAAGSGYASLSYYSTERAYTYWGQGTQVTVSSGGGGSGGGGSGGGGSEVQLVESGGGLVQAGGSLRLTCAASGRTFRSYAMGWFRQAPGKEREFVAAINYSGGSTNYADSVKGRFTISRDNAKNTLYLQMNSLEPEDTAVYYCAAGSGYASLSYYSTERAYTYWGQGTQVTVSS
notes: Bivalent Nanobody; also called RANKL9-15GS-RANKL9
Regarding B3, the half-maximal inhibitory concentration (IC50) in the assay with human RANK-L [1] is 0.03 nM; with human RANK-L [2] it was 0.072 nM.

B4: RANKL18hum6Bi_30 (VHH)
chain: EVQLVESGGGLVQPGGSLRLSCAASGRTFSRSAMGWFRQAPGKGREFVGFITGSGGTTYYADSVKGRFTISRDNAQNPVYLQMNSLRPEDTAVYYCAVYRRTYISSTYSESSEYDYWGQGTLVTVSSGGGGSGGGGSGGGGSGGGGSGGGGSGGGGSEVQLVESGGGLVQPGGSLRLSCAASGRTFSRSAMGWFRQAPGKGREFVGFITGSGGTTYYADSVKGRFTISRDNAQNPVYLQMNSLRPEDTAVYYCAVYRRTYISSTYSESSEYDYWGQGTLVTVSS
notes: Bivalent humanized Nanobody; also called RANKL18Hum6-30GS-RANKL18Hum6
B4: the concentration for half-maximal inhibition (IC50) in the assay with human RANK-L [1] came out at 0.038 nM; with human RANK-L [2] it was 0.05 nM.

B5: RANKL9 (VHH)
VHH: EVQLVESGGGLVQAGGSLRLTCAASGRTFRSYAMGWFRQAPGKEREFVAAINYSGGSTNYADSVKGRFTISRDNAKNTLYLQMNSLEPEDTAVYYCAAGSGYASLSYYSTERAYTYWGQGTQVTVSS
notes: not shown: c-myc and His6 tags
The EC50 is the concentration that produces a half-maximal response. High values mean a less potent agent, low ones a more potent agent. Turning to B5, the binding result is reported as “no binding (tested: 500 nM to 160 pM)” with mouse RANK-L, “no binding (tested: approximately 100 nM)” with TNFα, “no binding (tested: approximately 100 nM)” with CD40 ligand and “no binding (tested: approximately 100 nM)” with TRAIL. For the same molecule, the PE mean fluorescence in [3] came out at 2280; in assay [4], 3360; in [5] it was 381; in assay [6], 4860; in assay [8] it was 1350. Besides, the IC50 with human RANK-L [1] came to 0.13 nM; with human RANK-L [7], 0.341 nM; with human RANK-L [10] it was 0.137 nM; with human RANK-L [2], 0.238 nM. In the assay with human RANK-L [9], this molecule yielded a concentration giving a half-maximal response (EC50) of 0.542 nM.

B6: RANKL93biv (VHH)
chain: EVQLVESGGGLVQAGGSLRLTCAASGRTFRSYAMGWFRQAPGKEREFVAAINYSGGSTNYADSVKGRFTISRDNAKNTLYLQMNSLEPEDTAVYYCAAGSGYASLSYYSTERAYTYWGQGTQVTVSSGGGGSGGGGSGGGGSGGGGSGGGGSGGGGSEVQLVESGGGLVQAGGSLRLTCAASGRTFRSYAMGWFRQAPGKEREFVAAINYSGGSTNYADSVKGRFTISRDNAKNTLYLQMNSLEPEDTAVYYCAAGSGYASLSYYSTERAYTYWGQGTQVTVSS
notes: Bivalent Nanobody; also called RANKL9-30GS-RANKL9
In the case of B6, the results for the concentration for half-maximal inhibition (IC50) with human RANK-L [1] and in the assay with human RANK-L [2] were 0.048 nM and 0.066 nM, respectively.

B7: RANKL6 (VHH)
VHH: EVQLVESGGGLMQTGGSLRLSCAASGVTYSYYTASWFRQAPGKEREFVAAISPSGNTYYADSVKGRFTISRDNGKHTMYLQMNSLNPEDTAVYFCAIRATDSIYYASSYRHWGQGTQVTVSS
notes: as for B5
As to B7, the binding result with mouse RANK-L was “no binding (tested: 500 nM to 160 pM)”; in the assay with TNFα it was “no binding (tested: approximately 100 nM)”; in the assay with CD40 ligand, “no binding (tested: approximately 100 nM)”; with TRAIL it was “no binding (tested: approximately 100 nM)”. For the same molecule, the PE mean fluorescence in assay [3] was found to be 1700; in assay [4] it was 4580; in [5] it was 347; in assay [6] it was 12800; in assay [8], 434. The values for the concentration for half-maximal inhibition (IC50) with human RANK-L [7] and in the assay with human RANK-L [10] were 0.777 nM and 0.288 nM, respectively. In addition, the half-maximal effective concentration (EC50) with human RANK-L [9] was 0.385 nM.

B8: RANKL18hum6Bi_25 (VHH)
chain: EVQLVESGGGLVQPGGSLRLSCAASGRTFSRSAMGWFRQAPGKGREFVGFITGSGGTTYYADSVKGRFTISRDNAQNPVYLQMNSLRPEDTAVYYCAVYRRTYISSTYSESSEYDYWGQGTLVTVSSGGGGSGGGGSGGGGSGGGGSGGGGSEVQLVESGGGLVQPGGSLRLSCAASGRTFSRSAMGWFRQAPGKGREFVGFITGSGGTTYYADSVKGRFTISRDNAQNPVYLQMNSLRPEDTAVYYCAVYRRTYISSTYSESSEYDYWGQGTLVTVSS
notes: Bivalent humanized Nanobody; also called RANKL18Hum6-25GS-RANKL18Hum6
B8: the IC50 with human RANK-L [1] came out at 0.038 nM; with human RANK-L [2], 0.1 nM.
